# Experimental data taken from publication doi:10.1101/2023.12.13.571451 (bioRxiv, 2023).
# T1: Tsa1^WT-HA (peroxiredoxin Tsa1, single C-terminal HA tag at the endogenous locus) (S. cerevisiae, UniProt P34760 1-196)
# T1 sequence (looked up): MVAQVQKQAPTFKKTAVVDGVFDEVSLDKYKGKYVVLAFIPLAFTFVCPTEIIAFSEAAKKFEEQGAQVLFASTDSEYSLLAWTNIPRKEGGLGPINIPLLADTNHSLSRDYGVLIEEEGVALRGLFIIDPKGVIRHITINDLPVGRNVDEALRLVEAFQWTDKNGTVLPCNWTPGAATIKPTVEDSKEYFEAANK
# B1: recombinant Trx1-HIS (enzyme, S. cerevisiae, UniProt P22217 1-103, looked up)
# chain: MVTQFKTASEFDSAIAQDKLVVVDFYATWCGPCKMIAPMIEKFSEQYPQADFYKLDVDELGDVAQKNEVSAMPTLLLFKNGKEVAKVVGANPAAIKQAIAANA
# Target: T1, Tsa1^WT-HA (peroxiredoxin Tsa1, single …)
# Assay: in vitro thioredoxin reaction, non-reducing SDS-PAGE with immunoblot
binder,measurement,value
B1,binding result,binds
